In article doi:10.1101/2023.09.07.556688 (bioRxiv, 2023):

B1: Arabidopsis thaliana Delta-1-pyrroline-5-carboxylate synthase 2 (atP5CS2), wild type (enzyme, UniProt P54888 1-726, looked up)
chain: MTEIDRSRAFAKDVKRIVVKVGTAVVTGKGGRLALGRLGAICEQLAELNSDGFEVILVSSGAVGLGRQRLRYRQLVNSSFADLQKPQMELDGKACAGVGQSSLMAYYETMFDQLDVTVAQMLVTDSSFRDKDFRKQLSETVKAMLRMRVIPVFNENDAISTRRAPYKDSTGIFWDNDSLAALLSLELKADLLILLSDVEGLYTGPPSDSTSKLIHTFIKEKHQDEITFGEKSKLGRGGMTAKVKAAVNAAYGGVPVIITSGYAAENISKVLRGLRVGTLFHQDAHLWAPVVDTTSRDMAVAARESSRKLQALSSEDRKQILHDIANALEVNEKTIKAENDLDVAAAQEAGYEESLVARLVMKPGKISSLAASVRQLAEMEDPIGRVLKKTQVADDLILEKTSSPIGVLLIVFESRPDALVQIASLAIRSGNGLLLKGGKEARRSNAILHKVITDAIPETVGGKLIGLVTSREEIPDLLKLDDVIDLVIPRGSNKLVSQIKNSTKIPVLGHADGICHVYVDKSGKLDMAKRIVSDAKLDYPAACNAMETLLVHKDLEQNGFLDDLIYVLQTKGVTLYGGPRASAKLNIPETKSFHHEYSSKACTVEIVEDVYGAIDHIHQHGSAHTDCIVTEDSEVAEIFLRQVDSAAVFHNASTRFSDGFRFGLGAEVGISTSRIHARGPVGVEGLLTTRWIMRGKGQVVDGDNGIVYTHKDLPVLQRTEAVENGI
B2: truncated atP5CS2 protein consisting of residues 1-290 (atP5CS2-GK) (domain or fragment, Arabidopsis thaliana, UniProt P54888 1-290, looked up)
chain: MTEIDRSRAFAKDVKRIVVKVGTAVVTGKGGRLALGRLGAICEQLAELNSDGFEVILVSSGAVGLGRQRLRYRQLVNSSFADLQKPQMELDGKACAGVGQSSLMAYYETMFDQLDVTVAQMLVTDSSFRDKDFRKQLSETVKAMLRMRVIPVFNENDAISTRRAPYKDSTGIFWDNDSLAALLSLELKADLLILLSDVEGLYTGPPSDSTSKLIHTFIKEKHQDEITFGEKSKLGRGGMTAKVKAAVNAAYGGVPVIITSGYAAENISKVLRGLRVGTLFHQDAHLWAPV

Tests used:
cryo-EM structure = target: the molecule itself; experiment: cryo-EM structure
negative-stain EM = target: the molecule itself; experiment: negative-stain EM

Row | Protein | stoichiometry N (cryo-EM structure) | binding result (negative-stain EM)
1 | B1 | 4 | 
2 | B2 |  | binds
